# Measured values taken from IntAct's records for PubMed 24351927.
# Experiments:
# 1433g_rat Ywhag [1] = target: 1433g_rat Ywhag (UniProt P61983)
# 1433t_human YWHAQ = 1433t_human YWHAQ (UniProt P27348)
# 1433z_human YWHAZ = 1433z_human YWHAZ (UniProt P63104)
# 1433g_rat Ywhag [2] = target: 1433g_rat Ywhag (UniProt P61983); remark: listed apart in the source
# Sequence of UniProt P61983 (P61983 whole entry): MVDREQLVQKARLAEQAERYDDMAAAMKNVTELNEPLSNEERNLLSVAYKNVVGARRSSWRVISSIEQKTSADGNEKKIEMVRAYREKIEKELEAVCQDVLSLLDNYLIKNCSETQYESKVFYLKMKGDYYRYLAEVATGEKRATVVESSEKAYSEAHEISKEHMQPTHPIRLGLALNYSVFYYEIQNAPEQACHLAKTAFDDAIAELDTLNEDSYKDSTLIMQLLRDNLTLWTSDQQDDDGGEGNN
# Sequence of UniProt P27348 (P27348 whole entry): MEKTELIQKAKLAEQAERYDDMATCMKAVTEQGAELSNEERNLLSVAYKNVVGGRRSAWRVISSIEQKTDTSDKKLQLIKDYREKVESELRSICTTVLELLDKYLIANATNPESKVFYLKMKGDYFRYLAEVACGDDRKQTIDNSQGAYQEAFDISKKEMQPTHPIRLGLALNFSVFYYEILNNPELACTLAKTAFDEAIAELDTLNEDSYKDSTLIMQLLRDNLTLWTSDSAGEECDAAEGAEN
# Sequence of UniProt P63104 (P63104 whole entry): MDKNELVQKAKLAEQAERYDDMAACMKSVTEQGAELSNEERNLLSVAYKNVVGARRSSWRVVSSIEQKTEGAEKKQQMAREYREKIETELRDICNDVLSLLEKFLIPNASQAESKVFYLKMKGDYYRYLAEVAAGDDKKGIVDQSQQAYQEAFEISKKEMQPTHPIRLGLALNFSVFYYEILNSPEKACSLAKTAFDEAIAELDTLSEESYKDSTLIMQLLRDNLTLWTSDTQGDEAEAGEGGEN
effect of a mutation on the interaction (1433g_rat Ywhag [1]),effect of a mutation on the interaction (1433t_human YWHAQ),effect of a mutation on the interaction (1433z_human YWHAZ),effect of a mutation on the interaction (1433g_rat Ywhag [2]),Substance
disrupting interaction,disrupting interaction,disrupting interaction,–,"Leucine-rich repeat serine/threonine-protein kinase 2 (Homo sapiens), Q5S007 R1441G"
–,–,–,disrupting interaction,"Leucine-rich repeat serine/threonine-protein kinase 2 (Homo sapiens), Q5S007 S1443A;S1444A"
–,disrupting interaction,disrupting interaction,disrupting interaction,"Leucine-rich repeat serine/threonine-protein kinase 2 (Homo sapiens), Q5S007 S1444A"
